Test results reported in article PMC4417174.

System: PU.1ΔN167 (ETS domain) (murine)
Assay: DMS footprinting
Settings: saturating protein; Footprinting: 10 mM Tris-HCl pH 7.4, 150 mM NaCl, 0.1 mM EDTA, 0.5 g/l BSA, 0.1 g/l salmon sperm DNA; EMSA: 12% PAGE, 1x TBE, 0.1-10 uM protein; DLS: PBS, 25 C.

Q: With “PU.1 high-affinity site, 206-bp footprinting fragment” as the substance, how does the binding signal (% protection of core guanines vs unbound) read?
A: The binding signal (% protection of core guanines vs unbound) was 90.
